Experimental data from publication PMC10140047.
Values belong to the substance of their own block, whether it stands above or below them.

Assays:
[1] = molecular target: RanBP2/NUP358 BICD2 Binding Domain (BBD), 2147-2287 (UniProt P49792); assay: GST pull-down with purified proteins; conditions: reference: wild type; sites S102
[2] = molecular target: dynein (cytoplasmic dynein-1, endogenous, detected by its intermediate chain DIC) (human (endogenous in HeLa)) (UniProt Q13409)
PLK1 = PLK1 (UniProt P53350); assay: anti-GFP IP, PLK1 blot; conditions: reference: wild type, sites T319,S320,T321
[3] = molecular target: PLK1 PBD, 354-603 (Methods: 345-603) (UniProt P53350); assay: GST-PBD pull-down from cell extracts; conditions: reference: wild type; sites T319,S320,T321
[4] = molecular target: GST-RanBP2 BBD phosphorylated by CDK1/cyclin B (human) (UniProt P49792); assay: pull-down; GST-RanBP2 BBD on GSH agarose beads, untreated or pre-phosphorylated by CDK1/cyclin B1, incubated 90 min at RT with purified TwinStrep-BICD2 in Binding Buffer (50 mM Tris pH 7.4, 125 mM NaCl, 5 mM EDTA, 0.1% NP40); blot with anti-BICD2
GST-RanBP2 BBD phosphorylated by CDK1/cyclin B (human), sequence (P49792 2147-2287): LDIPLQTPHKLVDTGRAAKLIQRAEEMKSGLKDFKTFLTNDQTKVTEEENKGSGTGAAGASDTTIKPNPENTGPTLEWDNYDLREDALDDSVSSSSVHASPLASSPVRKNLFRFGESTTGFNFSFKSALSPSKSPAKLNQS

dynein (cytoplasmic dynein-1, endogenous, detected by its intermediate chain DIC) (human (endogenous in HeLa)), sequence (Q13409 whole entry, looked up): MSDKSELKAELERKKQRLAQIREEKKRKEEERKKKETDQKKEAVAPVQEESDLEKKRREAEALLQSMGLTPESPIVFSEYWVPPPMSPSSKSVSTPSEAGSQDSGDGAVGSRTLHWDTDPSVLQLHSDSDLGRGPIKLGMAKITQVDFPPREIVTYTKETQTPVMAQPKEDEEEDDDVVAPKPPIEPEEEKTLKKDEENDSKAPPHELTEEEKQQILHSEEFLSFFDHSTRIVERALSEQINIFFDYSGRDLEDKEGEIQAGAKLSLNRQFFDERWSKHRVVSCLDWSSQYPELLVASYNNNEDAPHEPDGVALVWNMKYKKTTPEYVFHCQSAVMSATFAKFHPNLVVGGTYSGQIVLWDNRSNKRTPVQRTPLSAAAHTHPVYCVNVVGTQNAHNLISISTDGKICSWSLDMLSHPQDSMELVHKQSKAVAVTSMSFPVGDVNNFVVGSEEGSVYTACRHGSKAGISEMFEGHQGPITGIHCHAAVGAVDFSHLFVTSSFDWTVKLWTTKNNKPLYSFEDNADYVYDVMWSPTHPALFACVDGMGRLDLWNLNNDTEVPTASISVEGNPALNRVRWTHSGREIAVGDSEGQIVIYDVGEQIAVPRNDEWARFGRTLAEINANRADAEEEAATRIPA

fold change [1]: 12
Substance: BICD2 (mouse, recombinant) (from UniProt Q921C5) S102D

Substance: GFP-BICD2 S102D (from UniProt Q921C5 1-820) (natural protein)
percent of U2OS cells with clustered mitochondria, BICD2 form expressed as GFP-BICD2 S102D-MTD [2]: 61%

binding against the reference (PLK1; mitotic cells): lost
Substance: BICD2 (mouse, recombinant) (from UniProt Q921C5) T319A/S320A/T321A, mitotic cells

binding against the reference [3]: lost
Substance: BICD2 (mouse, recombinant) (from UniProt Q921C5) T319A/S320A/T321A

Substance: GFP-BICD2 wild type (from UniProt Q921C5 1-820) (natural protein)
percent of U2OS cells with clustered mitochondria, BICD2 form expressed as GFP-BICD2 WT-MTD [2]: 50%

binding against the reference (PLK1; exponentially growing cells): lost
Substance: BICD2 (mouse, recombinant) (from UniProt Q921C5) T319A/S320A/T321A, exponentially growing cells

Substance: GFP-BICD2 S102A (from UniProt Q921C5 1-820) (natural protein)
percent of U2OS cells with clustered mitochondria, BICD2 form expressed as GFP-BICD2 S102A-MTD [2]: 43%

Substance: GFP-BICD2 [1–575] (from UniProt Q921C5 1-575) (domain or fragment)
percent of U2OS cells with clustered mitochondria, BICD2 form expressed as GFP-BICD2 [1–575]-MTD [2]: 85%

fold binding against wild-type BICD2 on phosphorylated BBD [4]: 12 fold
fold binding against wild-type BICD2 on unmodified BBD [4]: 400 times
Substance: TwinStrep-BICD2 S102D (from UniProt Q921C5 1-820) (natural protein)
